# From article PMC6579465
# Target: CAPS1 (calcium-dependent activator protein for secretion, CADPS) (rat (endogenous in rat brain)) (UniProt Q62717)
# Assay: affinity purification with mass spectrometry; CAPS1 immunoprecipitate of detergent extract resolved by SDS-PAGE; Coomassie-stained bands seen in the CAPS1 but not the control immunoprecipitate excised, in-gel digests, LC-MS/MS
# CAPS1 (calcium-dependent activator protein for secretion, CADPS) (rat (endogenous in rat brain)), sequence (Q62717 whole entry): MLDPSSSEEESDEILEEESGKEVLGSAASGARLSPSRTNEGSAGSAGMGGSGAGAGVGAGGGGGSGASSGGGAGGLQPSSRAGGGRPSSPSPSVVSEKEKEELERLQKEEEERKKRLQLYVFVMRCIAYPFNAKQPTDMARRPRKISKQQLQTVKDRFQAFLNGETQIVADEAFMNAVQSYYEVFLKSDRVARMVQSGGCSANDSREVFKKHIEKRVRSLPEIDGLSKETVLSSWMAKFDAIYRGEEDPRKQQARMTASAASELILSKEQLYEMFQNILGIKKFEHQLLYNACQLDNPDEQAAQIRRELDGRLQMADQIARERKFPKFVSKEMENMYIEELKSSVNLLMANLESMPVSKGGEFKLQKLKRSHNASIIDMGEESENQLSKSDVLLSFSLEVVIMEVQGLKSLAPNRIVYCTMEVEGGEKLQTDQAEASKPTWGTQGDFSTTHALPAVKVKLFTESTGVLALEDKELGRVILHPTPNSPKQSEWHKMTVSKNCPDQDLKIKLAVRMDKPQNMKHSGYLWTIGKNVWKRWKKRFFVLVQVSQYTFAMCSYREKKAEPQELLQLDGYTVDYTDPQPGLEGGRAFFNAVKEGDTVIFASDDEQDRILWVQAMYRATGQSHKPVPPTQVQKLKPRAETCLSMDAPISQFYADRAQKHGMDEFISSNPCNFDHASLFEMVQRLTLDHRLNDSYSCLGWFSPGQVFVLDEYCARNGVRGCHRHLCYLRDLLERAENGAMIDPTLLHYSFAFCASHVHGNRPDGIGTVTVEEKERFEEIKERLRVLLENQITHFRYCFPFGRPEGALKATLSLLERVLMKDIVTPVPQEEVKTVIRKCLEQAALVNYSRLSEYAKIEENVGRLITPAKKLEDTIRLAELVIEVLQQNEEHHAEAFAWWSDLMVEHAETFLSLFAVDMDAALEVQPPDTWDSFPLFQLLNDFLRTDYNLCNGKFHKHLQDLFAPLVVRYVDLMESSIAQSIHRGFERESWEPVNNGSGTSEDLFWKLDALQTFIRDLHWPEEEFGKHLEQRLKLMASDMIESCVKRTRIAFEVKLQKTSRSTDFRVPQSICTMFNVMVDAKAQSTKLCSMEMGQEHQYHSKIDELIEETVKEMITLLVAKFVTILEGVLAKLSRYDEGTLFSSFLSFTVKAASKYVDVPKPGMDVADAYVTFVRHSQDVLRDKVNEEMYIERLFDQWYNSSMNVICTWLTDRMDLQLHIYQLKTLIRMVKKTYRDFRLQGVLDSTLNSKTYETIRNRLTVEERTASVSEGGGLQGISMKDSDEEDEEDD
substance,measurement,value
Rabconnectin3α (Rbcn3α) / Dmx-like 2 (DMXL2) (natural protein),stoichiometry relative to CAPS1 (bands of the immunoprecipitate) (Rbcn3 subunit : CAPS1),0.167
